In patent US20260274928A1 (VIR BIOTECHNOLOGY, published 2026):
Substitutions are numbered along the chain they refer to. Read-outs that look alike come from different tables or passages of the source.

B1: S3L17 (antibody, V domains shown)
VH: EVQLVESGGGLVQPGGSLRLSCAASEIIVSSNYMNWVRQAPGKGLEWVSVIYAGGSTFYADSVRGRFTISRDNSKNTLYLQMNSLRPDDTAIYYCARDLGPWGMDVWGQGTTVTVSS
VL: DIQMTQSPSSLSASVGDRVAITCRASHGINNDLAWYQQKPGKVPKLLIYAASTLQSGVPSRFSGSGSGTDFTLTISSLQPEDVATYYCQHYSSDPRFTFGPGTKVDIK
B2: S2V29-v1.2 (antibody, V domains shown)
VH: EVQLVESGGSVVQPGRALRLSCAASGITFSSFGMYWVRQAPGKGLEWLGVIAYDGSNTYYADSVKGRFTISRDNSKNTLYLQMNSLRIEDTAVYYCAKDYYPLLSYYYGLDVWGQGTTVTVSS
VL: QSVLTQPRSVSGSPGQSVTISCTGTSSDVGAYNYVSWYQQHPGKAPKFMIYDVDQRPSGVPDRFSGSKSGNTASLIISGLQAEDEADYYCSSYAGSYIWVFGGGTQLTVL
B3: S2V29-v37.2 (antibody, V domains shown)
VH: B2 VH with V50Y, N57D
VL: B2 VL

Tests used:
SARS-CoV-2 BA.1 RBD = SARS-CoV-2 BA.1 RBD (SARS-CoV-2 BA.1, UniProt P0DTC2 328-531); assay: RBD binding affinity (SPR, see Example 5)
[1] = target: SARS-CoV-2 BQ.1.1 S glycoprotein (SARS-CoV-2 BQ.1.1); assay: cell-based or functional assay
[2] = target: SARS-CoV-2 BA.5 S glycoprotein (SARS-CoV-2 BA.5); assay: cell-based or functional assay
[3] = target: SARS-CoV-2 XBB.1.5 S glycoprotein (SARS-CoV-2 XBB.1.5); assay: cell-based or functional assay
[4] = target: SARS-CoV-2 BQ.1.1 S glycoprotein (SARS-CoV-2 BQ.1.1); assay: cell-based or functional assay; remark: listed apart in the source
[5] = target: SARS-CoV-2 BQ.1.1 S glycoprotein (SARS-CoV-2 BQ.1.1); assay: cell-based or functional assay; remark: listed apart in the source

Binder	Kd (SARS-CoV-2 BA.1 RBD)	IC50 [1]	IC50 [2]	IC50 [3]	FC vs S2V29-v1.2 [1]	IC50 [4]	FC IC50 par/IC50 Var [5]	IC50 [5]	FC vs S2V29-v1.2 [2]
B1	0.08 nM								
B2	0.05 nM	9 ng/mL	2.6 ng/mL	5.2 ng/mL					
B3	0.39 nM	5.6 ng/mL	2.1 ng/mL		1.6 fold	5 ng/mL	1.4 fold	5.6 ng/mL	1.2 fold
